Assay results taken from patent US20230129258A1 (Bicycle, published 2023).
Starred links: 1 amine or outer side, 2 acyl side, 3 side chain; linkers in the order of their positions; H or OH if unused. Positions of bridges follow the written chain, without caps; N, C: chain ends. Non-standard residues stand in square brackets, D forms with d. Chains are numbered I, II in the order given. No end group written: not given here. dLys(PYA) = D-lysine Nε-acylated with 4-pentynoic acid, clicked (triazole) to the linker azide, O=C(CCc1cn([*:3])nn1)NCCCC[C@@H](N[*:1])C(=O)[*:2]; TATA = O=C(CC[*:1])N1CN(C(=O)CC[*:2])CN(C(=O)CC[*:3])C1; 1Nal = N[C@@H](Cc1cccc2ccccc12)C(=O)O; Hyp = O=C(O)[C@@H]1C[C@@H](O)CN1; hArg = N=C(N)NCCCC[C@H](N)C(=O)O; tBuAla = CC(C)(C)C[C@H](N)C(=O)O; Nle = CCCC[C@H](N)C(=O)O

Assays:
[1] = molecular target: CD137 on Jurkat reporter cells (Promega kit CS196005) (UniProt Q07011 24-255, limits assumed); assay: cell-based or functional assay
Sequence of CD137 on Jurkat reporter cells (Promega kit CS196005) (Q07011 24-255 limits assumed): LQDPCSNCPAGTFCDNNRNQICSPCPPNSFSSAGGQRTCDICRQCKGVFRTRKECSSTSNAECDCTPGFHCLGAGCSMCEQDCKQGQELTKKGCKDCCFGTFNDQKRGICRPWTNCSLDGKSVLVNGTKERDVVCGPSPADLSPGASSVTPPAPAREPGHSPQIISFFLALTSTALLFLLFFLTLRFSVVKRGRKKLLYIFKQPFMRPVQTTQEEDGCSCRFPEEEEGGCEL

[2] = molecular target: T1, rat CD137 extracellular domain (rat, UniProt Q4W8J3 24-189); assay: SPR dual binding, BCY11863 captured on biotinylated human Nectin-4, n = 2
T1 sequence: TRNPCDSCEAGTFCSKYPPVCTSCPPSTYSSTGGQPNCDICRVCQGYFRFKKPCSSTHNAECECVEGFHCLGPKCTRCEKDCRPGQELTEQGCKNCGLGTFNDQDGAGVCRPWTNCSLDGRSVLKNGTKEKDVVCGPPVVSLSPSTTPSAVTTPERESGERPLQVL

[3] = molecular target: T2, mouse CD137 extracellular domain (mouse, UniProt P20334 24-187); assay: as above
T2 construct: extracellular domain
T2 sequence (looked up): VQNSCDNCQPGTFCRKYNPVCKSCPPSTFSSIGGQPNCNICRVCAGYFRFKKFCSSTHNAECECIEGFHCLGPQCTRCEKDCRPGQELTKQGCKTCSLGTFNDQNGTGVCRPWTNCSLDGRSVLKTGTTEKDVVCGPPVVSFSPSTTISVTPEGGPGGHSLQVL

[4] = molecular target: T3, cyno (NHP) Nectin-4 extracellular domain (cyno (NHP), UniProt A0A2K5WES1 32-349, biotinylated where captured on the streptavidin chip); assay: SPR direct binding, biotinylated Nectin-4 ECD on streptavidin chip, 25° C., n = 9
T3 construct: extracellular domain
T3 sequence: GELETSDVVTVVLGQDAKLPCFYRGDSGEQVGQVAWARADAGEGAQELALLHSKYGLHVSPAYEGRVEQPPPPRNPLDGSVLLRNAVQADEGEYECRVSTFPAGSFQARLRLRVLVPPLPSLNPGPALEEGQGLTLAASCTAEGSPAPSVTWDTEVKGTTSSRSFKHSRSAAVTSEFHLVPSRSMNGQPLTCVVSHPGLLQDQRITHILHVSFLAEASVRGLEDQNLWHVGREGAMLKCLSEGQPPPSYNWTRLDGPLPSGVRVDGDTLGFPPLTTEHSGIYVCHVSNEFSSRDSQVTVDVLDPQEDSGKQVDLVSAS

[5] = molecular target: T4, mouse Nectin-4 extracellular domain (mouse, UniProt Q8R007 31-347, biotinylated where captured on the streptavidin chip); assay: as above
T4 construct: extracellular domain
T4 sequence (looked up): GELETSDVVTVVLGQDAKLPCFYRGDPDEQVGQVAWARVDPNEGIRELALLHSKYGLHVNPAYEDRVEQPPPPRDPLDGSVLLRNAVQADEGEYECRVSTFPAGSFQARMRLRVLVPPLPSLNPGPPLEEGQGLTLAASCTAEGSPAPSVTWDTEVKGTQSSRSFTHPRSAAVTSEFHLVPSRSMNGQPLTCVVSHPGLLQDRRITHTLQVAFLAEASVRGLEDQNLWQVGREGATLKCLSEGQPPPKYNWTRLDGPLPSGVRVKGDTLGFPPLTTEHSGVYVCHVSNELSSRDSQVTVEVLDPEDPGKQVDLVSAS

[6] = molecular target: T5, rat Nectin-4 extracellular domain (rat, UniProt D3ZET1 31-348, biotinylated where captured on the streptavidin chip); assay: SPR sandwich assay, BCY11863 captured on biotinylated human CD137, soluble Nectin-4 ECD passed over, n = 3
T5 construct: extracellular domain
T5 sequence: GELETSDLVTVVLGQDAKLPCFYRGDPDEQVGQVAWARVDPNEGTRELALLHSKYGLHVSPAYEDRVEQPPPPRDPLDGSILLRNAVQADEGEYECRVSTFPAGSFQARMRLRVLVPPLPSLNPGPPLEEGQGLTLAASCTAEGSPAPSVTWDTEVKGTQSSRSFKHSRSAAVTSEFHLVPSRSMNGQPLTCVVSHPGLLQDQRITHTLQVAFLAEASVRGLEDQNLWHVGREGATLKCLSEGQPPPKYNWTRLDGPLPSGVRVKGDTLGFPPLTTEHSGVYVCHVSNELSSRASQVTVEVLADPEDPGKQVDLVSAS

[7] = molecular target: T4, mouse Nectin-4 extracellular domain; assay: as above
[8] = molecular target: T6, human CD137 extracellular domain (human, UniProt Q07011 24-186, biotinylated where captured on the streptavidin chip); assay: dual binding SPR: BCY11863 captured on immobilized human Nectin-4, soluble human CD137 as analyte, 1:1 fit [ctd) D]
T6 construct: extracellular domain; Section 17 says only 'Recombinant human CD137 (R&D systems)'; also called CD137 (human); Recombinant human CD137 (R&D systems)
T6 sequence (Q07011 24-186): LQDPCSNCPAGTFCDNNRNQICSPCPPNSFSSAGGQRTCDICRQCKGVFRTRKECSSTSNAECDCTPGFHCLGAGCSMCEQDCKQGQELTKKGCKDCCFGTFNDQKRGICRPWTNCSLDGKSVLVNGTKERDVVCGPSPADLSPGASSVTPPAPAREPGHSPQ

B1: heterotandem bicyclic peptide complex BCY11863 (peptide)
peptide 1: CP[1Nal][dD]CM[hArg]DWSTP[Hyp]WC
peptide 2: Ac-C[tBuAla]PE[dLys(PYA)]PYCFADPY[Nle]CA
modifications: linker I:1-I:5-I:15, II:1-II:8-II:15 via TATA; not fully specified (bridges); also: 1:2 complex: BCY8116 + 2x BCY8928
notes: also called Nectin-4/CD137 heterotandem
For B1, the “Fold improvement in EC50 over BCY10000 on same plate, NCI-H292” value [1] was 4.56 fold, the “Fold improvement in Emax over BCY10000 on same plate, NCI-H292” value [1] was 2.16 fold and the binding result [2] was “no binding”. For the same binder, the binding result [3] was “no binding”, the Kd [4] was 27 nM and the Kd [5] was 4.6 nM. For the same binder, the Kd [6] was 25 nM, the Kd [7] was 6.7 nM and the Kd [8] was 6.26 nM. It also gave a koff [8] of 0.00275 s⁻¹ and a kon [8] of 439000 M⁻¹ s⁻¹.
